Key:
[1] = target: UGT1A4 (UDP-glucuronosyltransferase 1A4) (Homo sapiens, UniProt P22310); assay: (§1) Binding affinity against human UDP Glucuronosyltransferase 1A4 (UGT1A4); settings: read-out: Km,app
[2] = substrate: C=CCc1ccc(O)c(OC)c1; assay: as §1
[3] = substrate: CC1(C)[C@H]2CC[C@]1(C)[C@H](O)C2; assay: as §1
[4] = substrate: CC1CC[C@H](C(C)C)[C@@H](O)C1; assay: as §1
[5] = substrate: CCOC(=O)Nc1ccc(NCc2ccc(F)cc2)cc1N; assay: as §1
[6] = substrate: CN(C)CCC=C1c2ccccc2CCc2ccccc21; assay: as §1
[7] = substrate: CN(C)CCCN1c2ccccc2CCc2ccccc21; assay: as §1
[8] = substrate: CN1CCC(=C2c3ccccc3C=Cc3ccccc32)CC1; assay: as §1
[9] = substrate: CN1CCC(=C2c3ccccc3CC(=O)c3sccc32)CC1; assay: as §1
[10] = substrate: CN1CCN(C2=Nc3cc(Cl)ccc3Nc3ccccc32)CC1; assay: as §1
[11] = substrate: CN1CCN(C2=Nc3ccccc3Oc3ccc(Cl)cc32)CC1; assay: as §1
[12] = substrate: C[C@@H]1CC[C@@]2(OC1)O[C@H]1C[C@H]3[C@@H]4CC=C5C[C@@H](O)CC[C@]5(C)[C@H]4CC[C@]3(C)[C@H]1[C@@H]2C; assay: as §1
[13] = substrate: C[C@@H]1CC[C@@]2(OC1)O[C@H]1C[C@H]3[C@@H]4CC[C@@]5(C)C[C@@H](O)CC[C@]5(C)[C@H]4CC(=O)[C@]3(C)[C@H]1[C@@H]2C; assay: as §1
[14] = substrate: C[C@@H]1CC[C@@]2(OC1)O[C@H]1C[C@H]3[C@@H]4CC[C@H]5C[C@@H](O)CC[C@]5(C)[C@H]4CC[C@]3(C)[C@H]1[C@@H]2C; assay: as §1
[15] = substrate: Cc1ccc(C(C)C)cc1O; assay: as §1
[16] = substrate: Clc1ccc2c(c1)N=C(N1CCNCC1)c1ccccc1N2; assay: as §1
[17] = substrate: Nc1ccc(-c2ccc(N)cc2)cc1; assay: as §1
[18] = substrate: Nc1ccc(-c2ccccc2)cc1; assay: as §1
[19] = substrate: Nc1ccccc1-c1ccccc1; assay: as §1
[20] = substrate: O=[N+]([O-])c1ccc(O)cc1; assay: as §1
[21] = substrate: O=c1c(-c2ccc(O)cc2)coc2cc(O)ccc12; assay: as §1
[22] = substrate: [H][C@@]12CC[C@]3([H])[C@]([H])(CC[C@@]4(C)[C@@]3([H])CC[C@]4([H])[C@H](C)O)[C@@]1(C)CC[C@H](O)C2; assay: as §1
[23] = substrate: [H][C@@]12CC[C@]3([H])[C@]([H])(CC[C@]4(C)C(C)(O)CC[C@@]34[H])[C@@]1(C)CCC(O)C2; assay: as §1
[24] = substrate: c1ccc(Nc2ccccc2)cc1; assay: as §1

In the case of CN(C)CCCN1c2ccccc2Sc2ccc(Cl)cc21 [CHLORPROMAZINE], the Km [1] is reported as 93 µM.

B1: UDP-glucuronosyltransferase 1A4 (Homo sapiens) (protein)
chain: MARGLQVPLPRLATGLLLLLSVQPWAESGKVLVVPTDGSPWLSMREALRELHARGHQAVVLTPEVNMHIKEEKFFTLTAYAVPWTQKEFDRVTLGYTQGFFETEHLLKRYSRSMAIMNNVSLALHRCCVELLHNEALIRHLNATSFDVVLTDPVNLCGAVLAKYLSIPAVFFWRYIPCDLDFKGTQCPNPSSYIPKLLTTNSDHMTFLQRVKNMLYPLALSYICHTFSAPYASLASELFQREVSVVDLVSYASVWLFRGDFVMDYPRPIMPNMVFIGGINCANGKPLSQEFEAYINASGEHGIVVFSLGSMVSEIPEKKAMAIADALGKIPQTVLWRYTGTRPSNLANNTILVKWLPQNDLLGHPMTRAFITHAGSHGVYESICNGVPMVMMPLFGDQMDNAKRMETKGAGVTLNVLEMTSEDLENALKAVINDKSYKENIMRLSSLHKDRPVEPLDLAVFWVEFVMRHKGAPHLRPAAHDLTWYQYHSLDVIGFLLAVVLTVAFITFKCCAYGYRKCLGKKGRVKKAHKSKTH
With B1 the Km [2] was 1570 µM, the Km [3] was 1100 µM and the Km [4] was 470 µM. It also gave a Km [5] of 322 µM, a Km [6] of 60 µM and a Km [7] of 310 µM. For the same molecule, the Km [8] was 150 µM, the Km [9] was 70 µM and the Km [10] was 62 µM. The Km [11] was 27 µM, the Km [12] was 13 µM and the Km [13] was 18 µM. The Km [14] was 7 µM, the Km [15] was 1500 µM and the Km [16] was 56 µM. For the same molecule, the Km [17] was 460 µM, the Km [18] was 66 µM and the Km [19] was 47 µM. For the same molecule, the Km [20] was 11600 µM, the Km [21] was 400 µM and the Km [22] was 7.3 µM. The Km [23] was 16 µM and the Km [24] was 240 µM.
